From article PMC4072508, “Genome-Wide Prediction and Validation of Peptides That Bind Human Prosurvival Bcl-2 Proteins” (PLoS Computational Biology, 2014)

T1: Mcl-1, Q07820
T1 chain: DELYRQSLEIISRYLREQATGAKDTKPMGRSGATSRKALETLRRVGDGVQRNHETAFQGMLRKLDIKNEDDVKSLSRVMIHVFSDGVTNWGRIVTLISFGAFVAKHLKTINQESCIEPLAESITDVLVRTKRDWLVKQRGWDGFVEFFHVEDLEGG


Assays:
Bcl-xL, Q07817 = experiment: peptide SPOT array, c-Myc-tagged receptor at 1 uM or 100 nM, anti-c-Myc-Cy3
Mcl-1, Q07820 = molecular target: T1, Mcl-1, Q07820; experiment: as above

Chain of Bcl-xL, Q07817 (Q07817 1-209): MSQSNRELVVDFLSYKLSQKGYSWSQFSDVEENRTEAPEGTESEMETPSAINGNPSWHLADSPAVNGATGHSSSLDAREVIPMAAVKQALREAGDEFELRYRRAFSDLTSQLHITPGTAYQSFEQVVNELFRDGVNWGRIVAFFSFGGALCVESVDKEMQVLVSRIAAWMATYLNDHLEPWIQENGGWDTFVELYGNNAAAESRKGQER

Binder | SPOT signal as a fraction of Bim BH3's signal on the same receptor and array (Bcl-xL, Q07817) | SPOT signal as a fraction of Bim BH3's signal on the same receptor and array (Mcl-1, Q07820)
QQMHHNAATADAQRADMLRGLSPRES [NCOR2] | 0.02 | 0.01
RDPQGWVAGNLSARGDGAAGFTLPGF | 0.02 | 0.02
FRFAQLCGLHDVIHADELEELMCYYQ [CLTCL1] | 0.02 | 0.02
KNIAGALAFWDANASELLNFIKQDRD [MLLT4] | 0.02 | 0.02
KLPVVGIGKHDCGMATDLALRCLVET [CCDC76] | 0.01 | 0.01
PPDAHVLGKADEAAGQDFSLDLRSTG [CIITA] | 0.01 | 0.01
VILADPDGHEDCFVGDEAFRELSKMD [GLOD4] | 0.01 | 0.01
SKFVILSAHKLVFIGDTLTRQVTAQD [NEDD9] | 0.05 | 0.04
SVRYYPSGDAFASGSDDATCRLYDLR | 0.02 | 0.02
AFTEREASEIMKSILEAIQYLHSINI [MAPKAPK2] | 0.02 | 0.01
SVRYYPSGDADASGSDDATCRLYDLR | 0.01 | 0.01
LSPGRSVTAGDIIVGDEILKGHTQDT [FLAD1] | 0.01 | 0.01
DEHISYVATKDCHLGDQLEGVNTPRQ [EXOC5] | 0.02 | 0.01
HPRRESQVRQLAWILDGVWVSIRLDS | 0.03 | 0.03
RGAMLSLATGLAHSGSDLSLLVPEIE [FAM115A] | 0.09 | 0.06
EKVLIFGGDILKFAGDALLALWRVER [ADCY10] | 0.04 | 0.02
VDFYQPTCIVDQCGADSLGCDRLGCF [HDAC3] | 0.01 | 0.01
ISDVQVFGYSLRFNADLLRSAVQQVN [DBC1] | 0.02 | 0.02
TLHFNQRGTWLASGSDDLKVVVWDWV [DCAF8] | 0.02 | 0.02
HPRRESQVRQLAWIGDGVWVSIRLDS | 0.03 | 0.02
RHFVIRRGQVLREIAEEYGGVMVSFP [HDLBP] | 0.05 | 0.04
RDPQGWVAGNLSARLDGAAGFTLPGF | 0.02 | 0.02

More lines, now with the values ahead:

SPOT signal as a fraction of Bim BH3's signal on the same receptor and array (Bcl-xL, Q07817) | SPOT signal as a fraction of Bim BH3's signal on the same receptor and array (Mcl-1, Q07820) | Binder
0.02 | 0.01 | GKPETCTGQDLADLGDRLRDWFQLLH
0.02 | 0.01 | GKPETCTGQDLADLLDRLRDWFQLLH
0.48 | 0.17 | SRQPRDFGDSDARGGKGFLRGVVGGV [VPS13C]
0.06 | 0.06 | CDLLGAKGKDILYILDHIFGDILKSK [NT5C2]
0.3 | 0.08 | RVSWNITGTVLASSGDDGCVRLWKAN [SEH1L]
0.02 | 0.03 | LNAVNYISTVDADWADNVFFLQLQQA
0.02 | 0.02 | DLSAVTLSREDQAMAEQLAENYHNTW [RYR1]
0.15 | 0.11 | NKTMTQLSSTLARCAKDILGFAVMFF [PKD2L1]
0.1 | 0.07 | AKFLLYLGHSLSTWGDRMWHFAVSVF [SLC40A1]
0.02 | 0.02 | IGFFIAFGIAMGKMGDQAKLMVDFFN [SLC1A2]
0.02 | 0.01 | CALIAGATLHVAWLGDSQVILVQQGQ
0.09 | 0.1 | CILNSFYGYVDRKGARWYSMEMAGIV [POLE]
0.03 | 0.02 | SHALICISHWILGILDRHLNNFMVAM [PRKDC]
0.02 | 0.03 | LNAVNYISTVLADWLDNVFFLQLQQA
0.02 | 0.02 | HPRKESQVRQDAWVGDGVWVSIRLDS [SPAG9]
0.03 | 0.03 | QLSKPGAALYLQSILEGFKEAVQYVL [SOS1]
0.02 | 0.01 | LGLGELAGLTVANEADSLTYDIANNK [STRN]
0.95 | 0.02 | VLSRIEAGRSLKSVADEFGISKSTFY [TIGD7_3eA]
0.02 | 0.01 | CALIAGATLHDAWLGDSQVILVQQGQ
